The values below come from PMC6510727.

For orientation: Kd means the constant that tells how readily two partners part at equilibrium. The low end stands for a tighter complex, the high end for a looser complex.

Assay [1] addresses PDE catalytic subunit (PDEα or PDEβ) of frog rod PDE (frog (Rana catesbeiana)). Briefly: PDE activity on dilution (pH assay), fitted with equation (s5); frog ROS membranes at various concentrations of PDE (≤40 nM; PDE/rhodopsin taken as 1/270), in the light without GTP, 5 mM cGMP, room temperature.
For assay [2] the target is unchanged. Kind of assay: PDE activity on dilution (pH assay), fitted with equation (s5); purified PDE at diluted low concentrations (≤40 nM), in the light without GTP, 5 mM cGMP, room temperature; relative to trypsin-treated full activity.
The target is the same in assay [3]. Briefly: co-purification (Mono Q, Superdex 200) with SDS-PAGE quantification; native PDE purified from frog ROS membranes to almost 100% purity; subunits quantified on Oriole-stained gels with bovine serum albumin as molar standard.

Where “and” joins values, the source holds several entries; their conditions need not be identical. Equal values may be shown once.

On to “native PDEγ of frog rod PDE (freed reversibly from the catalytic subunit) (from UniProt H1AAN5 1-87) (natural protein)”, for which the Kd is 0.04 to 0.06 nM and 0.054 nM in assay [1]; 0.01 nM and 0.005 to 0.02 nM in assay [2]. Further, the molar ratio of 2PDEγ/PDEαβ in assay [3] was 1.01.
